Our source for the Kd values is paper PMC9732523.

This data set addresses hnRNP K (UniProt P61978 1-463). In words: fluorescence anisotropy.

B1: mRunx1 int3-4 (ssRNA)
RNA: UCCUCCUCCCUUCCCCUCCCGGUCCCUA
For B1, binding was put at a Kd of 14.5 nM.

B2: hRUNX1 int3-4 (ssRNA)
RNA: UCUCUUCCCUCCCUCCUUCCCUCCCCCCAU
As for B2, the affinity, expressed as Kd, was 13.5 nM.
